System: T1, NtcA (His6-tagged) (Nostoc sp. PCC 7120), ORF:1390dea6
T1 sequence: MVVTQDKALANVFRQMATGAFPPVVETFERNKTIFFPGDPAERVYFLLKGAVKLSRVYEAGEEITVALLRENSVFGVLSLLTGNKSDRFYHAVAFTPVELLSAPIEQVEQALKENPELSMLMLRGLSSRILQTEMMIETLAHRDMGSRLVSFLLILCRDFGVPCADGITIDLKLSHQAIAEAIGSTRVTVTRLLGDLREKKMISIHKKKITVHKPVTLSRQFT
Experiment: EMSA
Conditions: EMSA as in Muro-Pastor et al. 1999; buffer, salt, pH and temperature not given in the material

Sequence	binding
ATCGATACTCTCGCAACAACGAAAGAATAGTAGTTTCATCAACCTCTAAACCTTTATATCTCCATACCCCTACACCCTAAACCCATATTTTGAGGGTATAGCGTAAGAACCCTACACCCGTCAGCCTCTTCTCCCCCCATTGACATTTTTGAAATATTCTGAAAGATAGAGGCTGATTACCTCCGGGTATATCTTTTTTCGGTAAATTTTTTCAAAAAAACTGTGTTGCCTGTATGAATATTGTTAAGAAAAGTTGCCCGTTGCATTTTGGGAATACGCAGCCGGGTTTTAACTC (double strand) [nsrR1 promoter fragment, mutated NtcA site (TAC to ATG)]	no binding
ATCGATACTCTCGCAACAACGAAAGAATAGTAGTTTCATCAACCTCTAAACCTTTATATCTCCATACCCCTACACCCTAAACCCATATTTTGAGGGTATAGCGTAAGAACCCTACACCCGTCAGCCTCTTCTCCCCCCATTGACATTTTTGAAATATTCTGAAAGATAGAGGCTGATTACCTCCGGGTATATCTTTTTTCGGTAAATTTTTTCAAAAAAACTGTGTTGCCTGTTACAATATTGTTAAGAAAAGTTGCCCGTTGCATTTTGGGAATACGCAGCCGGGTTTTAACTC (double strand) [nsrR1 promoter fragment WT (-239 to +50)]	binds
